Assay: label from the status in PepcDB records

MQESWVEGVEDIRMLGSSLRNDSAAAGRACARTRAGPPAESRKKKVQAERRRREGVANAPTRALRFLRARRAWSPRLAAPGPLTLVAEGEEGRNRVPAAKHPCLRTMSPEPAPPEPQGVRSSLEEPSAEPLGQGSAAFLAGDYEVAAELFRSLLAGLAQPERGLCLQLGEALARAGRLPEAIGAFRGAALLGPLQPGELSELASGLARALGLREKRPPVAARPGGCASGTSGPVAPRDLLGCPRCGRLLYKPVTLSSGLTVCKRCVEQVPVRAQARRVNVVLSGLLERCFPAECRLRRLACQARGLQRQQQPEAALLRCQQALDMAPDDSSLLLLRAELYLTMKNYEQALQDADTVCQREPLLTKGHHIKAQILSGLGRNKEVLKEFIYCLALNPECNSAKKETQKVICEVFFSASENEQQNSAPSTQTGPKALCDGQMSPQNPLEEAGGHANADSPKTPSEKPDVPENTNSSVLYFILGLHCEEDKKALEGVIPAAPSGTLKRQLPSDAEDKELDVNTPEKIPKKDADSSPQRNANSLEEEPEFTIDATDFECALCMRLLFEPVTTPCGHTFCLKCLERCLDHAPHCPLCKDKLSELLATRNFNVTVLTEELIFRYLPDELSDRKRVYDEEMSELSHLTRDVPIFVCAMAFPTVPCPLHVFEPRYRLMIRRCMETGTKRFGMCLSAENAGISEYGCMLEIKDVRTFPDGSSVVDAVGISRFRVLSHRHRDGYNTADIEYLEDEKVEGAEFEELTALHESVYQQSVSWFASLQDHMKKQILSHFGSMPDREPEPQSNSSGPAWSWWILAVLPLERKAQLAILGMGSLKERLLAIRRILVIITRKLNSRQEMANNAQRDN
protein production: failed

MLIFGFIGLFFLNIFSLHAQGIVTNKDAQEEFKWALNSYNNGIYDDALLSFKKILSFDPNNLDYHFWTGNVYYRLGYVEEALMEWRNLKDQGYKVPYLRHLISTIEQRRGIFSNYELNFKKLVKVASLDNSIYKRPHGYQITSLRADKYGGYYAANFVGNEILYFDVNNNVNALVKDGFSYLKSPYDVIEANNLLYVTLYSSDEIGVYDKVLGVKRKSIGNKGTKDGELLAPQYMAIDKRNYIYVSEWGNKRVSKFGLEGDFILHFGSRTSGYKGLLGPTGVTYLNENIYVADSLRNTIEVFDTSGNHLYSVFTSIEGIEGLSSDFVGNNVIVSSKDGVYKYSIAKKTITKILKADKMNSKISSSILDANNQMIVSDFNNAKVSVYKSDASLYDSLNVDVRRIIRLGGPKIYVELNVSSKSGLPVVGLKSENFSISNENYYIVNPKVAYNVNASKDINIAVVFDKSSYMKKYDTDQIVGLNALMELSKNKNFSFINATSVPIIDNIESLTNSIRNTSSLGPYSTDAVKTDVSLKLAGSGLMSKSSRRAVVYFSGGILNRKAFEKYSLDTIVSYYKNNDIRFYLILFGNDPINSKLQYLVNETGGAVIPFSSYEGVSKVYDLILEQKTGTYLLEYYYPGPQEPNKYFNLSVEANINQQTGRGEFAYFIN
protein production: failed

PFMDQSGGGVTFCGGEPLLHPEFLIDILKRCGQQGIHRAVDTTLLARKETVDEVMRNCELLLIDLKSMDSTVHQTFCDVPNELILKNIRRVAEADFPYYIRIPLIEGVNADEKNIKLSAEFLASLPRHPEIINLLPYHDIGKGKHAKLGSIYNPKGYKMQTPSEEVQQQCIQILTDYGLKATIGG
protein production: not failed

MIIEGPVIKFGDKIDTDIIIPARYLKYTDPQYLAQHVMEPLDPEFYKKASKGVIIVAGKVFGMGSSREQAAIALKAAGVKAVVAESFARIFYRNAINNGLPVITLPNSTKEIDENSYVKIDVETGEILVGNKVLKGKGITGMALEILQAGGIMEYLKKMQTVNRN
protein production: failed

MTAPAPQTKNAAWGWVLLAGLFEVGFTYALKMSQHDGKYLGLFLLCAIVSFECLAQALKTLPVGLAYAVWTGIGSVGTILVGLVLFGDSLSALRLGLLTVLIGSIAGLKIVDR
protein production: failed

MKKTTLALSALALSLGLALSPLSATAAETSSATTAQQMPSLAPMLEKVMPSVVSINVEGSTTVNTPRMPRNFQQFFGDDSPFCQEGSPFQSSPFCQGGQGGNGGGQQQKFMALGSGVIIDADKGYVVTNNHVVDNATVIKVQLSDGRKFDAKMVGKDPRSDIALIQIQNPKNLTAIKMADSDALRVGDYTVAIGNPFGLGETVTSGIVSALGRSGLNAENYENFIQTDAAINRGNSGGALVNLNGELIGINTAILAPDGGNIGIGFAIPSNMVKNLTSQMVEYGQVKRGELGIMGTELNSELAKAMKVDAQRGAFVSQVLPNSSAAKAGIKAGDVITSLNGKPISSFAALRAQVGTMPVGSKLTLGLLRDGKQVNVNLELQQSSQNQVDSSSIFNGIEGAEMSNKGKDQGVVVNNVKTGTPAAQIGLKKGDVIIGANQQAVKNIAELRKVLDSKPSVLALNIQRGDSTIYLLMQ
protein production: failed

SSEQIRRAPKVLLHDHLDGGLRPGTIVELARDAGYSGLPETDPDKLGIWFREAADSGSLERYLETFAHTCAVMQTRAALVRVAAECAEDLAADGVVYAEVRYAPEQHLEAGLSLEEVVEAVNEGFRAGERRAKEDGNRIRVGALLTAMRHAARALEIAELANRYRDAGVVGFDIAGAEAGFPPTRHLDAFEYLKRENNHFTIHAGEAFGLPSIWQALQWCGADRLGHGVRIIDDIQVREDGSVKLGRLASYVRDKRIPLELCPSSNLQTGAASSYADHPIGLLRRLHFRATVNTDNRLMSGTSMSREFEHLVDAFGYTLDDMAWFSVNAMKSAFIPFDERLAMINDV
protein production: failed

MKKLLRNLFGSGREEEKRSASDAMSGREQIVTNSEKSNLSTDPDHVNRQADTLKFDAIRAMNMGELVFATEALRKAMELRPEFETRYYLTEALLRRHLTEEALAQMNLLLEEVPMHTATLLNRAKLRLEQNDPSRALEDCGTGIESTSELEEQALFLYYGASAMKDMKNLKDALCLLKQAIEKNDAFIPARLLRARILIDLERYEEATQDLDWVAASDPEEEQVPMLRARLFMLEGKQQNAIQAYEELLSLDPFNEEGHCGIATLMIKEGRSAEAETFLREAIEEMPVQRNLILMLVEILENKGQTQEAAEWRAKLPEAEVESEAVNFNDLYKGNLY
protein production: failed

MADKEAAFDDAVEERVINEEYKIWKKNTPFLYDLVMTHALEWPSLTAQWLPDVTRPDGKDFSIHRLVLGTHTSDEQNHLVIASVQLPNDDAQFDASHYDSEKGEFGGFGSVSGKIEIEIKINHEGEVNRARYMPQNPCIIATKTPSCDVLVFDYTKHPSKPDPSGECNPDLRLRGHQKEGYGLSWNPNLSGNLLSASDDHTICLWDISAVPKEGKVVDAKTIFTGHTAVVEDVSWHLLHESLFGSVADDQKLMIWDTRSNNTSKPSHSVDAHTAEVNCLSFNPYSEFILATGSADKTVALWDLRNLKLKLHSFESHKDEIFQVQWSPHNETILASSGTDRRLNVWDLSKIGEEQSPEDAEDGPPELLFIHGGHTAKISDFSWNPNEPWVICSVSEDNIMQVWQMAENIYNDEDTEGSVDPEGQGS
protein production: not failed

MAAEPLTELEESIETVVTTFFTFARQEGRKDSLSVNEFKELVTQQLPHLLKDVGSLDEKMKSLDVNQDSELKFNEYWRLIGELAKEIRKKKDLKIRKK
protein production: not failed

MTDIRKAATLVVIRDGANKDIEVLVVRRAKTMRFLPGFVAFPGGAADPSDAEMAKRAFGRPVCAEDDDDPALAVTALRETAEEIGWLLAVRDGEGTKMDTPLAPDEQADLCKGGDALSAWLSARGLAFDLGLLRRIGRFVTPPTQPVRFDTRFFLCVGQHLGEPRLHGAELDAALWTPARDMLTRIQSGELPAVRPTIAVLKALVACPNAEIAMSTLSIGPLPPPAPRA
protein production: not failed

MAKVTISSVIDAPVEKVWARIRDFNGLPCWHPRMVESHIEDGKNASTIGCVRNFELITGARLREKLLDFSDENFLVSYSILETPQPLTNHKATLQLRRVTDGDRTYAEWTASFDAAPEEADKIAAGMGANVFQGGFNALKSHFSGQD
protein production: failed

MADSKGTASPAKPLQPPSAATPIIERVIKQMESEDGWVSLGEVGKHLSNLASDFDPRTFGFRKLSDLVRKTNAFELEQQNGHLEHHHHHH
protein production: failed

MDLLSLLDINNTLVNIPIGGGYAMSWVEGFGTIFGLLCIWFASQEKTINYVFGLLNVTLFAVIFFQIQLYGLLLLQLFFFCANIYGWYAWTKPNSSGETLEVRWLSQSKLLAISGGSIAAIALLTIYIDPFFFSLATIAVDGMNLFGAELAEPVLAPDAFPFWDSTMTVLSIVAQILMTRKYVENWMLWIVINIISIGIYATQGVFAMSVQYSILMFIAANGAREWARTAKENINNKQVEKAIA
protein production: failed

MEKVVTLNHDLPLLHFPNSRKPFSIPSPILRISSFKRHKKRSCLASSSRLGFYTETKTVSESHGVIVDNSTIGRRLLGLAAAVSVAVSLSIFCDSPALAESLTIAFPVSRAREVIETMVEMFPLRSADAAYGKLKAMLSTLGDPFTRLITPKEYQSFRIGSDGNLQGVGLFINSEPRTGHLVSDQTHLETQISLVFGLFVHFLSMNPADRAGIHEGEELVEINGEKLDDVDSEAAAQKLRGRVGTFVTIKLKNVLFGTDSGIREVTVTAVSVRCVKLPRDYIKLSPISSAIIPHTTPDGRLAKTGYVKLTAFSQTAASDMENAVHEMENQDVQSYILDLRNNPLLAIPYQGGLVRAGLDVAQLWLDGDETLVYTIDREGVTSPINMINGHAVTHDPLVVLVNEGSASASEILAGALHDNGRAILVGNRTFGKGKIQSITELNDGSALFVTVAKYLSPSLHEIDQVGIAPDVQCTTGMIDSLTAEIVEKMNSSVPLLEADSCVMVAEHELEARRSNGTAS
protein production: failed

MNVEKLKRLQAQVRIGGKGTPRRKKKVMHQTAATDDKKLQSSLKKLSVSTIPGIEEVNIIKDDLTVIHFNNPKAQASLSANTFAVTGHGETRKVVEMLPDILPQLGQETVVQLRMYANAMNSQKGAPGSGDGPLPAEEDDDVPLLVGDFDEVAKVEATKQPVHEPKESAEIKAKDKQQQQPKKEQKQSAKVPETTNPSENPKEKQENKKGQAKNNKKGDPQTNKDKTNKSKDQAKGQPAPQANKETTQAAQALKQNPSKPAVQQKKDQVLAVDQKIEANGAIQKAQQPKPAETKSTDQKVEPKSAEKQVDKAKPIEQTKTKESKVEHPKPAQKQLDQNTQAKPTAERSEAKPVVPTPEPQKSAPPAVQTLAQIVALPAEKPANEAVAAPKAEEQKKDSSGPAKVEPAITPSAPQPVTTAEPPKSALKQDSPPKSAPKQGSPPKNVPKQESPPQSAPKQDSPPKGAPKQDSPPKGAPKQDSPPKGAPKQDSAPQQKTPPPVKQEVAPAKQDEPPAKQDAPPAKQDAPVPVPEVIKTLAPEVPNVSQAPAQPQGQAALASEKPADAPKAIEEPKAAPKKESPPPTKPVTATVPVAPATPAEAPSPLAPSTPPSTPTSVPPSAATVTPPSPATVTPPSPAVVTPPQKQSAAPQAGIKKQEAGTKTKQQQPANKPQQPQKQPPGGAGGSAGPGGNKGVQKQPNPNAKPAVAPKPAQATPKPAAASPKASPNQTNPQQQQGKAANKASPPKQTGPTGGQQKSAANASKATASPKSAASPKATSPKAGTPTNPASASGGPN
protein production: failed

MNRRVVIVTAVHGPSAPFLPEAYASLCAQELPDGWEWRWVIQEDGRTQDVRPHVPDDPRVVFHQGRHGRQGGPGVARTMALAHADGAYVKVLDADDRLTPGALARDLAALEADPSIGWATSRVLDLLPDGSTAGFPGDPAHGPIERGEVLDFWRANGFRAQVHPATLLVRRDLLLAVGGWMALPASEDTGLLLALNCVSRGWFTEDVGLLYRKWEGQETGQASHVDPAERDARMTVVEARARALASFGWRLPEGTGDFDHLEHHHHHH
protein production: failed

MGMTRNLLAAGLAAVLALPALAAELVMVEQHGCEWCARWNEEIAPIYPKTAEGAFAPLRRVDLRAIPADLETARRVVFTPTFLIVEDGRELARLEGYPGEDFFWPLLEQLLVDHAGFVPKKPGSS
protein production: failed
